Target: the molecule itself
Experiment: SEC-MALS

B1: TRAIP Leucine zipper domain (198-280 a.a) (domain or fragment, human, UniProt Q9BWF2 198-280, looked up)
chain: AVYCVSLKKEYENLKEARKASGEVADKLRKDLFSSRSKLQTVYSELDQAKLELKSAQKDLQSADKEIMSLKKKLTMLQETLNL
In the case of B1, the “stoichiometry N” value is reported as 3.

Reference: paper PMC7253899 (Saudi Journal of Biological Sciences, 2020)
